# Where no end group is shown, it is not given here. [ ]: non-standard residue; d: D form.
# Columns and labels:
# FPRL1 receptor [1] = molecular target: T1, FPRL1 receptor (Homo sapiens, UniProt P25090); experiment: pERK level by Western blot in FPRL1 over-expressing RBL-2H3 cells after stimulation; type: cell-based
# T1 construct: expressed in transfected cells; host or cells: RBL-2H3 (rat basophilic leukemia) cells over-expressing FPRL1, kept under G418 selection
# T1 sequence (P25090 1-351): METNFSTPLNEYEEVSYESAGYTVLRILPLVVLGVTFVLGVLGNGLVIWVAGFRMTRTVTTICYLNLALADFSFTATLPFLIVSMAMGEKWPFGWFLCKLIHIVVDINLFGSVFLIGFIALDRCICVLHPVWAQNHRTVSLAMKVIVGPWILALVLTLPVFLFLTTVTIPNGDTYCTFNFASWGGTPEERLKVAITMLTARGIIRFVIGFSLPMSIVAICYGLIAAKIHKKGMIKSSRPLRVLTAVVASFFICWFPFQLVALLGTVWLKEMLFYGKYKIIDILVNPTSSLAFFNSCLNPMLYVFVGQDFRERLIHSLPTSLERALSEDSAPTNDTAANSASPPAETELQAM
# Protocol: In order to investigate the effect of HA conjugation on the signal transduction activity of peptide, three kinds of samples were prepared, the raw peptide, conjugate of peptide with HA-AMEA, and conjugate of peptide with HA-AEMA after hyaluronidase treatment. In the conjugate samples, the number of peptide molecules per single HA derivative chain was 5, 8, and 23, respectively. Each sample of conjugate of peptide with HA-AEMA (0.4 mL, 1 mg/mL) was divided into two aliquots. One aliquot was mixed with 0.2 mL of hyaluronidase solution (400 units/mL) and the other was mixed with 0.2 mL of water. Then, the solutions were incubated at 37° C. overnight for the complete enzymatic degradation of HA. Three replicates were carried out for the following bioactivity tests measuring the intracellular level of pERK and calcium ion. […]
# The prepared cells were aliquoted into 1×10^6 cells and stimulated with a control (no treatment), peptide (CWRYMVm, SEQ ID NO: 5), HA-AEMA, the mixture of peptide and HA-AEMA, and three kind of conjugate samples with and without hyaluronidase treatment. […] Protein concentrations in the lysates were determined by Bradford protein assay. […]
# The data are expressed as means±S.D. from several separate experiments. […]
# [2] = Dissolution of peptide in serum; type: physicochemical; settings: fetal bovine serum
# Protocol: In order to investigate the effect of HA conjugation on the serum stability of peptide, raw peptide and three kinds of conjugate samples were dissolved in 0.5 mL of water and mixed with 0.5 mL of fetal bovine serum (FBS), respectively. In conjugates of peptide with HA derivative, the number of peptide molecules per single HA chain was 5, 19, and 33, respectively. […] Then, the solutions were incubated at 37° C. for 96 hours. The remaining amount of peptide was measured by GPC analysis after incubation for 12, 24, 48, 72, and 96 hours. Three replicates were carried out.
# FPRL1 receptor [3] = molecular target: T1, FPRL1 receptor; experiment: Co-treatment with antagonistic peptide, pERK Western blot in RBL-2H3/FPRL1 cells; type: cell-based; settings: RBL-2H3/FPRL1 cells stimulated 5 min with CWRYMVm or HA-CWRYMVm conjugates (5, 8, 23)
# Protocol: In order to investigate the effect of co-treatment with antagonistic peptide (C—WRWWWW (SEQ ID NO: 6), WRW4 (SEQ ID NO: 2) on the binding characteristics of the conjugates of peptide with HA-AEMA to FPRL1 receptor, the RBL-2H3/FPRL1 cells were stimulated with a control (no treatment), peptide (CWRYMVm, SEQ ID NO: 5), and three kinds of conjugate samples for 5 minutes in the presence and absence of C-WRWWWW (SEQ ID NO: 6), ([…], competitor for FPRL1 binding). The other procedures including electrophoresis and immunoblot analysis for Western blot was repeated in the same way as described above.
"pERK level normalized to peptide alone (100%) (FPRL1 receptor [1]; RBL-2H3/FPRL1 cells, 5 min stimulation, same peptide amount, without hyaluronidase treatment) [%]","stimulation time of highest elevation of intracellular pERK level (FPRL1 receptor [1]; stimulation up to 30 min, Western blot) [min]",intracellular level of pERK on co-treatment with antagonistic peptide (FPRL1 receptor [3]),Substance,dissolution in serum [2]
100,5,–,"Cys-Trp-Arg-Tyr-Met-Val-DMet (CWRYMV[dM]; also: conjugated with hyaluronic acid derivative) [CWRYMVm, Agonistic peptide for FPRL1 receptor; WRYMVm modified with cysteine]",not dissolved in serum completely
–,–,did not increase at all,Trp-Arg-Trp-Trp-Trp-Trp (WRWWWW; also: conjugated with hyaluronic acid derivative) [FPRL1 antagonist peptide],–

# From patent US20100210509A1, “LONG ACTING HYALURONIC ACID - PEPTIDE CONJUGATE” (Postech Academy-Industry Foundation, priority 2007, published 2010)
